The data set can be described thus: label from the status in PepcDB records.
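Note: failed if final PepcDB status was selected cloned or expressed and not failed if soluble or beyond.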

Take “MQNMKNQVRGSGMDARSNPANVSDGLQNSSGHIGTNTRYRLTKLGEQMARLPIDPKIARILLAAKKHDCMAEILVIASALSIQDPRERPLEARDAAAKAHERFTDKQSDFLTYLNIWDSFQRERDKGLSNKQLVQWCRQYFLSHLRMREWRELHHQLAQTAIEMGLTTKEAAFRRPPEVKQLTSSENAGDQDLSAKLKQKQLDKKQHRTQIRATKEAGYEQIHRALLTGLIANVGMKSPDSNDYTGARGSRFHLFPASALFKAKPKWVMAAELVETTRLYARDVAVIQPEWIEQEAPHLVRYHYFEPHWEQKRGEVVASERVTFYGLTVLPRRPVSYGKVAPEEAREIFIRSALVAQEYDLKADFFVHNKKLIKEITELEHKSRKQDVLVDDEALFAFYHERLPDFYMADSVSEGLCPANPQQTTPSPVGKGWGEGKTVAAQTNFSATAANPLPNPLPQEREQSASVSTVSGSLKTMSCEARLNFCEAKTKTESSLHSQRLSENYTPPFSDGLRPANPQQTTPSPVGEGWGEGKTVAAQTNFSATAANPLPQEREQSASALTVSDDPKPKKQPASQKGRLKPLPLADIRTFEAWLKTAERDNPRLLFLSRDDLMQHAAAHITEEQFPKHWQTADGKFKLSYRFEPHHPLDGVTLTLPLTVLNRISPAALEWLVPGMIREKIQLQIKALPKQIRRICVPVPEFITQFLSQNPDRNAPILPQLAQAIAKTAGDIRILEQINQDEWAAFRLPEHCYFNLRIIDDGEQELAMGRDLIQIQQQLGKAATTTFRDNTQEFERDNVTAWDIGILPESIKFARGKQQLTGYLGLQKEKDGRIALRLFDTSAAAGHAHRLGVIELMKLQLKEQVKDLNKGIQGFTQAAMLLKHINADTLRDDLTQAVCDRAFIGEDKLPRNEKAFKEQIKRARSRLPAVKEALSRYLQETAAAYAELNGKLGKHPLTHLLRLRLQTLLAPGFATRTPWAQWPRLPIYLKAMTLRLEKYSSNPARDAAREADIQELEQMWQEKTDGLAKQGQPVSDGLAAFKWMIEELRVSLFAQELKTPYPVSVKRLLKMWEILL”: the protein production result is “failed”.

Take “MQNPAGNPYNLDSFWFEQLMSHPSLNHAKMATRIQDETLEREVADLVISTLNLDVSPESVDPEAPLYREGLGLDSIDILEIALVVSKRYGFQLRADNEDNVRIFGSLRSLCQHIAANRVECLEHHHHHH”: the protein production result is recorded as “not failed”.

As to “MQNPIDSLLYVKISAEQAGKIFENLESSIPLPIQLSEPGQKEDFKAENIKPEMILAGMLTVFAYDRENPHITYYRKIFNLLRPDIRKEMTEAAIIKIKNNDFDMAEEILLSLEGLNPDDGITKLNLALLMEERSQFCEMRELFEDALSFNKRAEELYSELILFEPPLPGVFFNAAYFFIKQKNYIKAKSLLKTYLEIENDSSETAEFRKAKASELLKTISEQALDDELFQKAYKCIDLGEEEKAAESIKLFLRKNPKVWNAWFLLGWALRRMGRWEDARSSFLKTIELLENSEISDKEPLCDVYNELAICLMELELFDEAEKHLINALSLDSENIKIISNLGTLALKQGKQEEAEAFFRTVLEINPDDKIALNVLGKPRA”, the protein production entry was “failed”.

Regarding “MQPETSAQYQHRFSQAIRGGEAADGLPQDRLNVYIRLIRNNIHSFIDRCYTETRQYFDSKEWSRLKEGFVRDARAQTPYFQEIPGEFLQYCQSLPLSDGILALMDFEYTQLLAEVAQIPDIPDIHYSNDSKYTPSPAAFIRQYRYDVTHDLQEAETALLIWRNAEDDVMYQTLDGFDMMLLEIMGSSALSFDTLAQTLVEFMPKADNWKNILLGKWSGWIEQRIIIPSLSAISENMEGNSPSQNHLSA”, the protein production result is listed as “not failed”.

For the sequence “MQPFRVTLVEDEPSHATLIQYHLNQLGAEVTVHPSGSAFFQHRSQLSTCDLLIVSDQLVDLSIFSLLDIVKEQTKQPSVLILTTGRHELIESSEHNLSYLQKPFAISELRAAIDYHKPSMGVTMNV”, the protein production entry is recorded as “not failed”.

Consider “MQPGRSKAIPSRNASDKAYEPAVLLMRARVLHQQGQLDEARSAYKKVLKKAPDNFMALHFYALAEYQSGNAELGIKTLKRALLADPKSAQAQSDMGSMLIAVGRFADSLASCDKAIAIDPTLMLAYANRGLALSALARYEDAIASFDKAIELMPDRADTWNDRGNALHKLGRYTEALESYDKAIEIDPLSDVAFMNRAGTYKDLKQLDKALASYDRALSIGKRPVQAGLARAETLLFMRNVKDAMATCTAVLKVEPNSAIALTLLGNCMASLGDAETAIALHSRALELMPNYEAAISSKIFSMDFCAGSDVEAQQAVRSSWWTQIGAPIYRACATPPTNDRDPDRRLVVGYVSADFRAHSAAFSFRPVIEHHDHNQFEVVLYSGVVVPDDSTRAFEAIADKWRDATLMSDQGLADQIKEDKVDILVDLSGHSNGNRLRVFARKPAPVQVTAWGHATGTGLPVMDYLLGDPVAIPVEDRHFYAEAVYDLPSIVIIEPVPQQWRSLELPFDRNGYLTYGSLNRISKISDAAIEVWSQVLAASPTSRLILKDHQIDDPAVRQTLLEKFGARGIAAGRITLLGSSSRQDHLETLKQIDLCLDPFPQAGGVSTWEALHMGVPVVSRLGHTVPSRVGCAVLAAAGLPDFIAPNDARYIEIASKPELERLRSIRRGLRDFILQRCGPAAYTRAVEDAYRTMWKRWCAAPFDEAKDRALRRGR”, for which the protein production entry is recorded as “failed”.

For the sequence “MQPGWMSSRFYQTCDWIWKLAYINLLWLSGTLLGLVVLGFLPATTAMFTVLRKWFTGNPDVAITRTFFQAYKNEFLKINLLGAVLLLGAYILYFNYMYLGTVEGTVHMVLSLGWYAFLILYIITLFYIIPAYVHYNLKLFQYIKTALIIGFVNPLALVTLAISIGLLGYLLYLVPGLIPFFGPSTFALIVMWCANMSFNRVEKKKEKLELAGQN”, the protein production result is reported as “failed”.

With “MQQFATLSLASLLMLGTFTAFAAENGDAPASGWHIDDSATKGASGQQGMFDGVRLTEQQRQQMRDLMHQSRQDKPAFNTEDVKAMHKLVTAETFDEAAVRAQITRMMSVQIERQIQMTRVRNQMYNLLTPAQKEILELKHKQRMKEMQQQISMFNQMVAPSSGTTNHTETDSPELEHHHHHH”, the protein production result is given as “not failed”.

With “MQQLSFLPGEMTPGERSLILRALQTLDRHXHEPGVAFTSTRAAREWLILNMAGLEREEFRVLYLNNQNQLIAGETXFTGTINRTEVHPREVIKRALYHNAAAVVLAHNHPSGEVTPSKADRLITERLVQALGLVDIRVPDHLIVGGNQVFSFAEHGLL”, the protein production result is recorded as “failed”.

Regarding “MQQRRPVRRALLSVSDKAGIVEFAQALSARGVELLSTGGTARLLAEKGLPVTEVSDYTGFPEMMDGRVKTLHPKVHGGILGRRGQDDAIMEEHQIQPIDMVVVNLYPFAQTVAREGCSLEDAVENIDIGGPTMVRSAAKNHKDVAIVVKSSDYDAIIKEMDDNEGSLTLATRFDLAIKAFEHTAAYDSMIANYFGSMVPAYHGESKEAAGRFPRTLNLNFIKKLDMRYGENSHQQAAFYIEENVKEASVATATQVQGKALSYNNIADTDAALECVKEFAEPACVIVKHANPCGVAIGNSILDAYDRAYKTDPTSAFGGIIAFNRELDAETAQAIISRQFVEVIIAPSASEEALKITAAKQNVRVLTCGQWGERVPGLDFKRVNGGLLVQDRDLGMVGAEELRVVTKRQPSEQELRDALFCWKVAKFVKSNAIVYAKNNMTIGIGAGQMSRVYSAKIAGIKAADEGLEVKGSSMASDAFFPFRDGIDAAAAAGVTCVIQPGGSIRDDEVIAAADEHGIAMLFTDMRHFRH”, the protein production entry is reported as “not failed”.

“MQQVFNVSVPVPDDVVIISKEEYLNLLSDNEQGKWWDIDNLQELLGIGRSKLINDILLNPDIKKEVDLSINPNGFIVYPKGKGSRYKILATKARKYFEDNFGSILLNS”: the protein production result is recorded as “failed”.

Turning to “MQREKTQTNLRLDEGGGSVWQKCSRHEGRFVCVAGVCPYCLHERLSSLCPDCAHDLPCSCTPRASVSSRGEGDVSFARIGSVGRVANLIECEPAFRRSTSITGPYFWSAKPEPILETEKDLKPGRGRWLWRLFRGNREEETKIKAAKVMKKSNSVAGEVLFSPTPVTSKGNGWYFPSPIKVFRQSRVSKMIFQQRSPLYRG”, the protein production result is “failed”.

For “MQRGDISMTKRKDIHFRIEEKLLERFESALHYEGLKKTDVLTHAIQQFCMKVEYEKMNDVKRQYSVSNNLQTRIDTHKHYEEKQVNLDEIVIEHLQLQGRERILEVGCANGKFLSLLQANGHKGQLTGFDQSEAMLSEATKTNNLIEWRLGDAGKLPFEANYYDLIVARHMLYHMKDVEKTIQGFHKVIHPGGSLLATTNSNVTLPRIVEMCNRMLDTFDLPKTTSSVTPFCLENGKEILQSVFPTVEVSVIHNALVFHHATPIVNYISSMFPSLNIPDNTLLHAEMKDWLKEEVENELLLHNGIWRDPKTLAIYRCQKEKS”, the protein production entry is “failed”.
